This assay has as its target Recombinant human IL-17A (Sino Biological, 12047-HNAS) (human) (UniProt Q16552). In words: indirect ELISA, human IL-17A coated (Table 7, not in this copy). A general note: An ELISA detects its analyte on a solid surface through an enzyme-linked reagent.

Chain of Recombinant human IL-17A (Sino Biological, 12047-HNAS) (human) (Q16552 24-155): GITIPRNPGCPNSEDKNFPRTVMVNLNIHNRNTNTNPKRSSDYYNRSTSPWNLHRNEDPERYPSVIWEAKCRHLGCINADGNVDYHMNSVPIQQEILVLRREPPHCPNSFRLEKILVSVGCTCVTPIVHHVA

B1: 杂交瘤14F10/9F6产生的鼠源抗体 (antibody, V domains shown)
VH: QVQLQQSGPEVVRPGVSVKISCKGSGYTFTDYAMHWVKQSHAKSLEWIGVIGPYNDNTNYNQKFKGKATMTVDKSSSTAYMEIARLTSEDSAIYYCARGERYFDYWGQGTTLTVSS
VL: DIQMTQSSSYLSVSLGGRVTITCRASDHINNWLAWYQQKPGNAPRLLIYGATSLETGVPSRFSGSGSGKDYTLSITSLQTEDVATYYCQQYWTIPLTFGAGTKLELK
In the case of B1, the EC50 ratio to the humanized antibody was found to be 3 fold.

For the origin of these results see patent CN107522783A.
